Results taken from ChEMBL document CHEMBL1275523.

How the values were obtained:
Format in all cases: cell-based
[1] = substrate: CC(=O)N[C@H]1[C@H]([C@H](O)[C@H](O)CO)O[C@@](Oc2ccc3c(C)cc(=O)oc3c2)(C(=O)O)C[C@@H]1O; experiment: Activity of human NEU2 expressed in HEK293 cells by fluorometric high-performance liquid chromatography
[2] = substrate: CC(=O)N[C@H]1[C@H]([C@H](O)[C@H](O)CO)O[C@@](Oc2ccc3c(C)cc(=O)oc3c2)(C(=O)O)C[C@@H]1O; experiment: Activity of human NEU4 expressed in HEK293 cells by fluorometric high-performance liquid chromatography
[3] = substrate: CCCCCCCCCCCCC/C=C/[C@@H](O)[C@H](CO[C@@H]1O[C@H](CO)[C@@H](O[C@@H]2O[C@H](CO)[C@H](O)[C@H](O[C@]3(C(=O)O)C[C@H](O)[C@@H](NC(C)=O)[C@H]([C@H](O)[C@H](O)CO)O3)[C@H]2O)[C@H](O)[C@H]1O)NC(=O)CCCCCCCCCCCCCCCCCCCCCC; experiment: Activity of human NEU3 expressed in HEK293 cells by fluorometric high-performance liquid chromatography

B1: Sialidase-2 (Homo sapiens), Q9Y3R4 (protein)
chain: MASLPVLQKESVFQSGAHAYRIPALLYLPGQQSLLAFAEQRASKKDEHAELIVLRRGDYDAPTHQVQWQAQEVVAQARLDGHRSMNPCPLYDAQTGTLFLFFIAIPGQVTEQQQLQTRANVTRLCQVTSTDHGRTWSSPRDLTDAAIGPAYREWSTFAVGPGHCLQLHDRARSLVVPAYAYRKLHPIQRPIPSAFCFLSHDHGRTWARGHFVAQDTLECQVAEVETGEQRVVTLNARSHLRARVQAQSTNDGLDFQESQLVKKLVEPPPQGCQGSVISFPSPRSGPGSPAQWLLYTHPTHSWQRADLGAYLNPRPPAPEAWSEPVLLAKGSCAYSDLQSMGTGPDGSPLFGCLYEANDYEEIVFLMFTLKQAFPAEYLPQ
Km [1]: 1800 µM

B2: Sialidase-4 (Homo sapiens), Q8WWR8 (protein)
chain: MGVPRTPSRTVLFERERTGLTYRVPSLLPVPPGPTLLAFVEQRLSPDDSHAHRLVLRRGTLAGGSVRWGALHVLGTAALAEHRSMNPCPVHDAGTGTVFLFFIAVLGHTPEAVQIATGRNAARLCCVASRDAGLSWGSARDLTEEAIGGAVQDWATFAVGPGHGVQLPSGRLLVPAYTYRVDRRECFGKICRTSPHSFAFYSDDHGRTWRCGGLVPNLRSGECQLAAVDGGQAGSFLYCNARSPLGSRVQALSTDEGTSFLPAERVASLPETAWGCQGSIVGFPAPAPNRPRDDSWSVGPGSPLQPPLLGPGVHEPPEEAAVDPRGGQVPGGPFSRLQPRGDGPRQPGPRPGVSGDVGSWTLALPMPFAAPPQSPTWLLYSHPVGRRARLHMGIRLSQSPLDPRSWTEPWVIYEGPSGYSDLASIGPAPEGGLVFACLYESGARTSYDEISFCTFSLREVLENVPASPKPPNLGDKPRGCCWPS
Km [2]: 20.3 µM

B3: Sialidase-3 (Homo sapiens), Q9UQ49 (protein)
chain: MEEVTTCSFNSPLFRQEDDRGITYRIPALLYIPPTHTFLAFAEKRSTRRDEDALHLVLRRGLRIGQLVQWGPLKPLMEATLPGHRTMNPCPVWEQKSGCVFLFFICVRGHVTERQQIVSGRNAARLCFIYSQDAGCSWSEVRDLTEEVIGSELKHWATFAVGPGHGIQLQSGRLVIPAYTYYIPSWFFCFQLPCKTRPHSLMIYSDDLGVTWHHGRLIRPMVTVECEVAEVTGRAGHPVLYCSARTPNRCRAEALSTDHGEGFQRLALSRQLCEPPHGCQGSVVSFRPLEIPHRCQDSSSKDAPTIQQSSPGSSLRLEEEAGTPSESWLLYSHPTSRKQRVDLGIYLNQTPLEAACWSRPWILHCGPCGYSDLAALEEEGLFGCLFECGTKQECEQIAFRLFTHREILSHLQGDCTSPGRNPSQFKSN
Km [3]: 45.6 µM
